Reference: paper PMC2793005, “Dissecting the Role of Critical Residues and Substrate Preference of a Fatty Acyl-CoA Synthetase (FadD13) of Mycobacterium tuberculosis” (PLoS ONE, 2009)
Numbering of substitutions follows the chain as printed. In names and notes the source's numbering stands.

B1: FadD13 mutant A302G, N-terminal 6x histidine tagged (enzyme)
chain: MKNIGWMLRQRATVSPRLQAYVEPSTDVRMTYAQMNALANRCADVLTALGIAKGDRVALLMPNSVEFCCLFYGAAKLGAVAVPINTRLAAPEVSFILSDSGSKVVIYGAPSAPVIDAIRAQADPPGTVTDWIGADSLAERLRSAAADEPAVECGGDDNLFIMYTSGTTGHPKGVVHTHESVHSAASSWASTIDVRYRDRLLLPLPMFHVAALTTVIFSAMRGVTLISMPQFDATKVWSLIVEERVCIGGAVPAILNFMRQVPEFAELDAPDFRYFITGGAPMPEALIKIYAAKNIEVVQGYGLTESCGGGTLLLSEDALRKAGSAGRATMFTDVAVRGDDGVIREHGEGEVVIKSDILLKEYWNRPEATRDAFDNGWFRTGDIGEIDDEGYLYIKDRLKDMIISGGENVYPAEIESVIIGVPGVSEVAVIGLPDEKWGEIAAAIVVADQNEVSEQQIVEYCGTRLARYKLPKKVIFAEAIPRNPTGKILKTVLREQYSATVPK
notes: not shown: His6, N-terminal, kept
B2: FadD13 mutant D382A, N-terminal 6x histidine tagged (enzyme)
chain: B1 chain with G302A, D382A
notes: as for B1

Target: the molecule itself
Assay: native gel or EMSA

Row | Protein | stoichiometry N | binding result
1 | B1 | 2 | 
2 | B2 |  | binds
